Legend:
[1] = molecular target: HIV-1 Gag fused to the N- or C-terminal fragment of Venus (HIV-1); experiment: split reporter (BiFC, NanoBiT); Venus BiFC in HeLa cells cotransfected with VN and VC fusion plasmids; thirty-six to forty hours after transfection, fixed; percent BiFC positive cells by flow cytometry and fluorescence microscopy
[2] = molecular target: HIV-1 Gag fused to the N- or C-terminal fragment of Venus (HIV-1); experiment: split reporter (BiFC, NanoBiT); Venus BiFC in 293T cells cotransfected with VC and VN chimeric Vpr and Gag plasmids; fixed thirty-six hours after transfection; percent BiFC positive cells by flow cytometry
[3] = molecular target: HIV-1 Vpr Δ44 fused to the N- or C-terminal fragment of Venus (UniProt P12520); experiment: BiFC (bimolecular fluorescence complementation), flow cytometry on cells; details: cells cotransfected with VC and VN fusions of the same Vpr mutant; vector control 0.1; parent: 35.7
[4] = molecular target: T1, HIV-1 Vpr from NL43 (Vpr^wt) fused to the N- or C-terminal fragment of Venus (HIV-1 (NL43)), P12520; experiment: split reporter (BiFC, NanoBiT); Venus BiFC in HeLa cells cotransfected with VN and VC fusion plasmids; thirty-six to forty hours after transfection, fixed; percent BiFC positive cells by flow cytometry and fluorescence microscopy; details: remark: other sources report otherwise
T1 chain: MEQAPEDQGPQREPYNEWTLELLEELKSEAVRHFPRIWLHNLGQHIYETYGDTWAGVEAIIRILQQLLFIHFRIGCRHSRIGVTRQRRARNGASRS

[5] = molecular target: T1, HIV-1 Vpr from NL43 (Vpr^wt) fused to …; experiment: as above; details: remark: other sources report otherwise
[6] = molecular target: T1, HIV-1 Vpr from NL43 (Vpr^wt) fused to …; experiment: split reporter (BiFC, NanoBiT); Venus BiFC competition: VC-Vpr and VN-Vpr plasmids cotransfected with increasing amounts of untagged Vpr plasmid or empty vector; flow cytometry thirty-six hours after transfection; BiFC positive cells with vector backbone set as 100%; details: remark: other sources report otherwise

Work on “HIV-1 Gag fused to the N- or C-terminal fragment of Venus (natural protein)” yielded a percent BiFC positive cells [1] of 30%.

In the case of “HIV-1 Vpr E48A fused to the N- or C-terminal fragment of Venus (from UniProt P12520 1-96) (natural protein)”, the percent BiFC positive cells (with VC-Gag) [2] is reported as 28% and the percent BiFC positive cells (with VN-Gag) [2] is reported as 29%.

Molecule “HIV-1 Vpr R80A fused to the N- or C-terminal fragment of Venus (from UniProt P12520 1-96) (natural protein)” has a percent BiFC positive cells (with VC-Gag) [2] of 27% and a percent BiFC positive cells (with VN-Gag) [2] of 33%.

“HIV-1 Vpr from NL43 (Vpr^wt) fused to the N- or C-terminal fragment of Venus (from UniProt P12520 1-96) (natural protein)” was tested, and the percent BiFC positive cells (with VC-Gag) [2] was 27%, the percent BiFC positive cells (with VN-Gag) [2] was 31% and the percent fluorescent positive cells (venus-C-Gag and venus-N-Vpr^wt) [1] was 29%. The percent fluorescent positive cells (venus-N-Gag and venus-C-Vpr^wt) [1] was 34%.

“HIV-1 Vpr from NL43 (Vpr^wt) fused to the N- or C-terminal fragment of Venus (from UniProt P12520) 44del” was tested, and the response (% BiFC positive cells) [3] was 1.

B1: HIV-1 Vpr from NL43 (Vpr^wt) fused to the N- or C-terminal fragment of Venus, P12520 1-96 (natural protein)
chain: T1 chain
Work on B1 yielded a percent BiFC positive cells [4] of 26% and a percent BiFC positive cells [5] of 35%.

B2: untagged HIV-1 Vpr (expressed from pVpr), P12520 1-96 (natural protein)
chain: T1 chain
B2 gave a percent BiFC positive cells left (VC-Vpr with VN-Vpr, vector backbone as 100%) at a ratio of 1:10 [6] of less than 20% and a percent reduction of BiFC positive cells (VC-Vpr with VN-Vpr) at a ratio of 1:2.5 [6] of 40%.

Source: publication PMC2894018 (2010)
